The PETadex activity labels (doi:10.1021/ma200949p)

B1: unnamed (protein)
chain: MAVMTPRRERSSLLSRALQVTAAAATALVTAVSLAAPAHAANPYERGPNPTDALLEASSGPFSVSEENVSRLSASGFGGGTIYYPRENNTYGAVAISPGYTGTEASIAWLGERIASHGFVVITIDTITTLDQPDSRAEQLNAALNHMINRASSTVRSRIDSSRLAVMGHSMGGGGTLRLASQRPDLKAAIPLTPWHLNKNWSSVTVPTLIIGADLDTIAPVATHAKPFYNSLPSSISKAYLELDGATHFAPNIPNKIIGKYSVAWLKRFVDNDTRYTQFLCPGPRDGLFGEVEEYRSTCPF
B2: unnamed (protein)
chain: MANPYERGPNPTDALLEARSGPFSVSEERASRFGADGFGGGTIYYPRENNTYGAVAISPGYTGTQASVAWLGERIASHGFVVITIDTNTTLDQPDSRARQLNAALDYMINDASSAVRSRIDSSRLAVMGHSMGGGGTLRLASQRPDLKAAIPLTPWHLNKNWSSVRVPTLIIGADLDTIAPVLTHARPFYNSLPTSISKAYLELDGATHFAPNIPNKIIGKYSVAWLKRFVDNDTRYTQFLCPGPRDGLFGEVEEYRSTCPF
B3: unnamed (protein)
chain: MANPYERGPNPTDALLEARSGPFSVSEENVSRLSASGFGGGTIYYPRENNTYGAVAISPGYTGTEASIAWLGERIASHGFVVITIDTITTLDQPDSRAEQLNAALNHMINRASSTVRSRIDSSRLAVMGHSMGGGGSLRLASQRPDLKAAIPLTPWHLNKNWSSVRVPTLIIGADLDTIAPVLTHARPFYNSLPTSISKAYLELDGATHFAPNIPNKIIGKYSVAWLKRFVDNDTRYTQFLCPGPRDGLFGEVEEYRSTCPF
B4: unnamed (protein)
chain: MANPYERGPNPTDALLEASSGPFSVSEENVSRLSASGFGGGTIYYPRENNTYGAVAISPGYTGTEASIAWLGERIASHGFVVITIDTITTLDQPDSRAEQLNAALNHMINRASSTVRSRIDSSRLAVMGHSMGGGGTLRLASQRPDLKAAIPLTPWHLNKNWSSVTVPTLIIGADLDTIAPVATHAKPFYNSLPSSISKAYLELDGATHFAPNIPNKIIGKYSVAWLKRFVDNDTRYTQFLCPGPRDGLFGEVEEYRSTCPF

Assays:
[1] = substrate: pNPB; test: Proxy for plastic degradation [Km]; details: pH 7
[2] = substrate: pNPB; test: Proxy for plastic degradation [kcat] (s⁻¹); details: pH 7
[3] = substrate: PET; test: Proxy for plastic degradation [Released monomer concentration (HPLC/LC-MS) (BA)]; details: pH 7
[4] = substrate: PET; test: Proxy for plastic degradation [Released monomer concentration (HPLC/LC-MS) (HEB)]; details: pH 7
[5] = substrate: MHET; test: Proxy for plastic degradation [Released monomer concentration (HPLC/LC-MS) (MHET)]; details: pH 7
[6] = substrate: PET; test: Proxy for plastic degradation [Released monomer concentration (HPLC/LC-MS) (MHET+BA, TA, HEB)]; details: pH 7
[7] = substrate: p-NP-C2; details: pH 7, 25 °C
[8] = substrate: p-NP-C4; details: pH 7, 25 °C
[9] = substrate: pNP-C2; test: Proxy for plastic degradation [Km]; details: pH 7
[10] = substrate: pNP-C2; test: Proxy for plastic degradation [kcat] (s⁻¹); details: pH 7
[11] = substrate: PET; test: Proxy for plastic degradation [Released monomer concentration (HPLC/LC-MS) (TPA)] (mmol/mol enzyme); details: pH 7
[12] = substrate: PET; test: Proxy for plastic degradation [Released monomer concentration (HPLC/LC-MS) (TPA+MHET+BA+HEB)] (mmol/mol enzyme); details: pH 7
[13] = substrate: PET; test: Proxy for plastic degradation [Released monomer concentration (HPLC/LC-MS) (BA (benzoic acid))] (mmol/mol enzyme); details: pH 7
[14] = substrate: PET; test: Proxy for plastic degradation [Released monomer concentration (HPLC/LC-MS) (HEB (2-hydroxyethyl benzoate))] (mmol/mol enzyme); details: pH 7
[15] = substrate: PET; test: Proxy for plastic degradation [Water contact angle]; details: pH 7
[16] = substrate: PET; test: Proxy for plastic degradation [Surface fluorescence after BrNP labelling]; details: pH 7; part of the chain shown

Protein	Proxy for plastic degradation [1]	Proxy for plastic degradation [2]	Km ([7]; part of the chain shown)	kcat ([7]; part of the chain shown)	kcat/Km ([7]; part of the chain shown)	Km ([8]; part of the chain shown)	kcat ([8]; part of the chain shown)	kcat/Km ([8]; part of the chain shown)	Proxy for plastic degradation ([9]; part of the chain shown)	Proxy for plastic degradation ([1]; part of the chain shown)	Proxy for plastic degradation ([10]; part of the chain shown)	Proxy for plastic degradation ([2]; part of the chain shown)	Proxy for plastic degradation ([3]; part of the chain shown)	Proxy for plastic degradation ([4]; part of the chain shown)	Proxy for plastic degradation ([5]; 50 °C, part of the chain shown)	Proxy for plastic degradation ([5]; part of the chain shown)	Proxy for plastic degradation ([6]; part of the chain shown)	Proxy for plastic degradation ([11]; part of the chain shown)	Proxy for plastic degradation ([12]; 2 h, part of the chain shown)	Proxy for plastic degradation ([13]; part of the chain shown)	other results
B1	2100 µM	30.9																			Proxy for plastic degradation [3]: 23 mmol/mol; Proxy for plastic degradation [4]: 22 mmol/mol; Proxy for plastic degradation [5]: 15 mmol/mol; Proxy for plastic degradation ([5]; 50 °C): 7 mmol/mol; Proxy for plastic degradation [6]: 49 mmol/mol
B2			200 µM	2.4 s⁻¹	12000 M⁻¹ s⁻¹	2130 µM	5.3 s⁻¹	2480 M⁻¹ s⁻¹	200 µM	2130 µM	2.4	5.3	28 mmol/mol	29 mmol/mol	13 mmol/mol	18 mmol/mol	76 mmol/mol	5	90	27.9	Proxy for plastic degradation ([14]; part of the chain shown): 28.6
B3	2100 µM	30.9																			Km [7]: 167 µM; kcat [7]: 39.5 s⁻¹; kcat/Km [7]: 237000 M⁻¹ s⁻¹; Km [8]: 2100 µM; kcat [8]: 30.9 s⁻¹; kcat/Km [8]: 14700 M⁻¹ s⁻¹; Proxy for plastic degradation [9]: 167 µM; Proxy for plastic degradation [10]: 39.5; Proxy for plastic degradation [15]: 71.2 °; Proxy for plastic degradation [11]: 42; Proxy for plastic degradation ([12]; 2 h): 64; Proxy for plastic degradation ([12]; 24 h): 830; Proxy for plastic degradation ([12]; 72 h): 1820; Proxy for plastic degradation [13]: 22.7; Proxy for plastic degradation [14]: 23.4
B4			127 µM	212 s⁻¹	1.67e+06 M⁻¹ s⁻¹	1480 µM	195 s⁻¹	132000 M⁻¹ s⁻¹	127 µM	1480 µM	212	195	48 mmol/mol	32 mmol/mol	5 mmol/mol	25 mmol/mol	63 mmol/mol	56	119	48.9	Proxy for plastic degradation ([15]; part of the chain shown): 66.3 °; Proxy for plastic degradation [16]: 1540 AU; Proxy for plastic degradation ([14]; part of the chain shown): 32
